Among the data in article PMC9122904, “Insights into the client protein release mechanism of the ATP-independent chaperone Spy” (Nature Communications, 2022) are Kd values, retold here.

Where a chain is given by its changes, count along the chain named. In names and notes the source's numbering stands.

What all share (assay): BLI; Octet RED96; client biotinylated and loaded on streptavidin sensors; Spy or Spy variant in solution at 0.25, 0.5, 1, 1.5 and 2 μM; 40 mM HEPES, 150 mM NaCl, pH 7.5; Kd calculated as koff/kon
Details in all cases: both partners purified

The target in assay [1] is T1, Spy_(27-130) (UniProt P77754 50-153).
T1 construct: Spy chaperone, residues 27-130; source: E. coli BL21 (DE3), purified (Ni-NTA, cation exchange, SEC); not shown: His6, N-terminal, cleaved; SUMO, N-terminal, cleaved
T1 sequence (looked up): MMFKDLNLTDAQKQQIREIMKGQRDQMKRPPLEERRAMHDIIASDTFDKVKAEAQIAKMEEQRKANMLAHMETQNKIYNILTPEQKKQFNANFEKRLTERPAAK
An outline of the steps: (§1)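 Association was recorded with an Octet RED96 as streptavidin sensors carrying client proteins, biotinylated with EZ-link NHS-biotin at a 1:1 molar ratio, sat in 40 mM HEPES, 150 mM NaCl, pH 7.5 with 0.25 to 2 μM of the analyte protein (0.25, 0.5, 1, 1.5 and 2 μM). Dissociation followed after transfer to analyte-free buffer. Both wavelength-shift phases were fitted in SigmaPlot 12.0 to obtain koff and the observed association rate, whose dependence on analyte concentration yielded kon, with Kd defined as koff divided by kon.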

In assay [2] the target is T2, Spy_(29-127) (UniProt P77754 52-150).
T2 construct: Spy chaperone, residues 29-127; source: E. coli BL21 (DE3), purified (Ni-NTA, cation exchange, SEC); not shown: His6, N-terminal, cleaved; SUMO, N-terminal, cleaved
T2 sequence (looked up): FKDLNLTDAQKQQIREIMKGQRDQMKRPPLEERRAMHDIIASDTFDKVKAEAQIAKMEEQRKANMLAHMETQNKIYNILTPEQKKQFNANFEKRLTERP
An outline of the steps: as §1

Assay [3] addresses T3, Spy_(29-124) R50D (UniProt P77754 52-147, R50D).
T3 construct: source: E. coli BL21 (DE3), purified (Ni-NTA, cation exchange, SEC); not shown: His6, N-terminal, cleaved; SUMO, N-terminal, cleaved
T3 sequence (looked up): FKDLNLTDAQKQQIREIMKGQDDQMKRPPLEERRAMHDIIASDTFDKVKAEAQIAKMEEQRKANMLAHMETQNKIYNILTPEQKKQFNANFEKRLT

In assay [4] the target is T4, Spy_(29-124) R89D (UniProt P77754 52-147, R89D).
T4 construct: source: E. coli BL21 (DE3), purified (Ni-NTA, cation exchange, SEC); not shown: His6, N-terminal, cleaved; SUMO, N-terminal, cleaved
T4 sequence (looked up): T3 sequence (looked up) with D22R, R61D

In assay [5] the target is T5, Spy_(29-124) K75D (UniProt P77754 52-147, K75D).
T5 construct: source: E. coli BL21 (DE3), purified (Ni-NTA, cation exchange, SEC); not shown: His6, N-terminal, cleaved; SUMO, N-terminal, cleaved
T5 sequence (looked up): T3 sequence (looked up) with D22R, K47D

Assay [6] addresses T6, Spy_(29-124) R43D (UniProt P77754 52-147, R43D).
T6 construct: source: E. coli BL21 (DE3), purified (Ni-NTA, cation exchange, SEC); not shown: His6, N-terminal, cleaved; SUMO, N-terminal, cleaved
T6 sequence (looked up): T3 sequence (looked up) with R15D, D22R

The target of assay [7] is T7, Spy_(29-124) R61D R62D (UniProt P77754 52-147, R61D | R62D).
T7 construct: source: E. coli BL21 (DE3), purified (Ni-NTA, cation exchange, SEC); not shown: His6, N-terminal, cleaved; SUMO, N-terminal, cleaved
T7 sequence (looked up): T3 sequence (looked up) with D22R, R33D, R34D

Assay [8] deals with T8, Spy_(29-124) K121D R122D (UniProt P77754 52-147, K121D | R122D).
T8 construct: source: E. coli BL21 (DE3), purified (Ni-NTA, cation exchange, SEC); not shown: His6, N-terminal, cleaved; SUMO, N-terminal, cleaved
T8 sequence (looked up): T3 sequence (looked up) with D22R, K93D, R94D

Assay [9] has as its target T9, Spy_(29-124) K54D R55D (UniProt P77754 52-147, K54D | R55D).
T9 construct: source: E. coli BL21 (DE3), purified (Ni-NTA, cation exchange, SEC); not shown: His6, N-terminal, cleaved; SUMO, N-terminal, cleaved
T9 sequence (looked up): T3 sequence (looked up) with D22R, K26D, R27D

B1: Im7 H40W L53A I54A (natural protein)
chain: MELKNSISDYTEAEFVQLLKEIEKENVAATDDVLDVLLEWFVKITEHPDGTDAAYYPSDNRDDSPEGIVKEIKEWRAANGKPGFKQG
modifications: biotin (EZ-link NHS-biotin, 1:1 molar ratio of biotin to protein)
notes: Im7 (colicin E7 immunity protein) with H40W L53A I54A; Spy was made with an N-terminal His6-SUMO tag that was cleaved; also called Im7AAW; partially folded client; source: purified by a similar procedure to Spy
Regarding B1, the Kd in assay [1] was 297 nM; in assay [2], 310 nM; in assay [3] it was 2680 nM; in assay [4], 2610 nM; in assay [5] it was 456 nM; in assay [6] it was 3070 nM. For the same molecule, the results for the Kd in assay [7], in [8] and in assay [9] were 3540 nM, 1850 nM and 1900 nM, respectively.
